Measured values published in patent US20200115434A1 (EUREKA THERAPEUTICS, published 2020).

Tests used:
[1] = target: T1, PE-labeled AFP158/HLA-A*02:01 tetramer (human, biotinylated via the BSP peptide linked to the C-terminal end of the extracellular domain); assay: flow cytometry, PE-labelled tetramer on transduced Jurkat cells
T1 construct: also called AFP158 tetramer; AFP158/HLA-A*02:01 tetramers; not shown: BSP peptide (BirA biotinylation site) at the C-terminus

[2] = target: T1, PE-labeled AFP158/HLA-A*02:01 tetramer; assay: flow cytometry, PE-labelled tetramer on transduced J.RT3-T3.5 cells

| Binder | binding result [1] | binding result [2] |
| --- | --- | --- |
| anti-AFP158/HLA-A*02:01-abTCR-5 (other, the junction between chain and tag is not described) chain 1: QSVLTQPASVSGSPGQSITISCTGTSSDVGGYNYVSWYQQHPGKAPKLMIYDVNNRPSEVSNRFSGSKSGNTASLTISGLQAEDEADYYCSSYTTGSRAVFGGGTKLTVLGQPKANPTVTLFPPSSEELQANKATLVCLISDFYPGAVTVAWKADGSPVKAGVETTKPSKQSNNKYAASSYLSLTPEQWKSHRSYSCQVTHEGSTVEKTVAPTECSDHVKPKETENTKQPSKSCHKPKAIVHTEKVNMMSLTVLGLRMLFAKTVAVNFLLTAKLFFLYPYDVPDYA chain 2: EVQLVQSGAEVKKPGESLTISCKASGYSFPNYWITWVRQMSGGGLEWMGRIDPGDSYTTYNPSFQGHVTISIDKSTNTAYLHWNSLKASDTAMYYCARYYVSLVDIWGQGTLVTVSSASTKGPSVFPLAPSSKSTSGGTAALGCLVKDYFPEPVTVSWNSGALTSGVHTFPAVLQSSGLYSLSSVVTVPSSSLGTQTYICNVNHKPSNTKVDKRVEPKSCMDPKDNCSKDANDTLLLQLTNTSAYYMYLLLLLKSVVYFAIITCCLLRRTAFCCNGEKSDYKDHDGDYKDHDIDYKDDDDK | binds |  |
| anti-AFP158/HLA-A*02:01-abTCR-3 (other, the junction between chain and tag is not described) chain 1: EVQLVQSGAEVKKPGESLTISCKASGYSFPNYWITWVRQMSGGGLEWMGRIDPGDSYTTYNPSFQGHVTISIDKSTNTAYLHWNSLKASDTAMYYCARYYVSLVDIWGQGTLVTVSSASTKGPSVFPLAPSSKSTSGGTAALGCLVKDYFPEPVTVSWNSGALTSGVHTFPAVLQSSGLYSLSSVVTVPSSSLGTQTYICNVNHKPSNTKVDKRVEPKSCESSCDVKLVEKSFETDTNLNFQNLSVIGFRILLLKVAGFNLLMTLRLWSSDYKDHDGDYKDHDIDYKDDDDK chain 2: QSVLTQPASVSGSPGQSITISCTGTSSDVGGYNYVSWYQQHPGKAPKLMIYDVNNRPSEVSNRFSGSKSGNTASLTISGLQAEDEADYYCSSYTTGSRAVFGGGTKLTVLGQPKANPTVTLFPPSSEELQANKATLVCLISDFYPGAVTVAWKADGSPVKAGVETTKPSKQSNNKYAASSYLSLTPEQWKSHRSYSCQVTHEGSTVEKTVAPTECSADCGFTSVSYQQGVLSATILYEILLGKATLYAVLVSALVLMAMVKRKDFYPYDVPDYA |  | binds |
| anti-AFP158/HLA-A*02:01-abTCR-4 (other, the junction between chain and tag is not described) chain 1: QSVLTQPASVSGSPGQSITISCTGTSSDVGGYNYVSWYQQHPGKAPKLMIYDVNNRPSEVSNRFSGSKSGNTASLTISGLQAEDEADYYCSSYTTGSRAVFGGGTKLTVLGQPKANPTVTLFPPSSEELQANKATLVCLISDFYPGAVTVAWKADGSPVKAGVETTKPSKQSNNKYAASSYLSLTPEQWKSHRSYSCQVTHEGSTVEKTVAPTECSESSCDVKLVEKSFETDTNLNFQNLSVIGFRILLLKVAGFNLLMTLRLWSSDYKDHDGDYKDHDIDYKDDDDK chain 2: EVQLVQSGAEVKKPGESLTISCKASGYSFPNYWITWVRQMSGGGLEWMGRIDPGDSYTTYNPSFQGHVTISIDKSTNTAYLHWNSLKASDTAMYYCARYYVSLVDIWGQGTLVTVSSASTKGPSVFPLAPSSKSTSGGTAALGCLVKDYFPEPVTVSWNSGALTSGVHTFPAVLQSSGLYSLSSVVTVPSSSLGTQTYICNVNHKPSNTKVDKRVEPKSCADCGFTSVSYQQGVLSATILYEILLGKATLYAVLVSALVLMAMVKRKDFYPYDVPDYA | binds |  |
| anti-AFP158/HLA-A*02:01-abTCR-6 (other, the junction between chain and tag is not described) chain 1: EVQLVQSGAEVKKPGESLTISCKASGYSFPNYWITWVRQMSGGGLEWMGRIDPGDSYTTYNPSFQGHVTISIDKSTNTAYLHWNSLKASDTAMYYCARYYVSLVDIWGQGTLVTVSSASTKGPSVFPLAPSSKSTSGGTAALGCLVKDYFPEPVTVSWNSGALTSGVHTFPAVLQSSGLYSLSSVVTVPSSSLGTQTYICNVNHKPSNTKVDKRVEPKSCDHVKPKETENTKQPSKSCHKPKAIVHTEKVNMMSLTVLGLRMLFAKTVAVNFLLTAKLFFLYPYDVPDYA chain 2: QSVLTQPASVSGSPGQSITISCTGTSSDVGGYNYVSWYQQHPGKAPKLMIYDVNNRPSEVSNRFSGSKSGNTASLTISGLQAEDEADYYCSSYTTGSRAVFGGGTKLTVLGQPKANPTVTLFPPSSEELQANKATLVCLISDFYPGAVTVAWKADGSPVKAGVETTKPSKQSNNKYAASSYLSLTPEQWKSHRSYSCQVTHEGSTVEKTVAPTECSMDPKDNCSKDANDTLLLQLTNTSAYYMYLLLLLKSVVYFAIITCCLLRRTAFCCNGEKSDYKDHDGDYKDHDIDYKDDDDK | binds |  |
